Molecular target: T1, PPARγ2 (Homo sapiens, UniProt P37231)
T1 sequence (P37231 1-505): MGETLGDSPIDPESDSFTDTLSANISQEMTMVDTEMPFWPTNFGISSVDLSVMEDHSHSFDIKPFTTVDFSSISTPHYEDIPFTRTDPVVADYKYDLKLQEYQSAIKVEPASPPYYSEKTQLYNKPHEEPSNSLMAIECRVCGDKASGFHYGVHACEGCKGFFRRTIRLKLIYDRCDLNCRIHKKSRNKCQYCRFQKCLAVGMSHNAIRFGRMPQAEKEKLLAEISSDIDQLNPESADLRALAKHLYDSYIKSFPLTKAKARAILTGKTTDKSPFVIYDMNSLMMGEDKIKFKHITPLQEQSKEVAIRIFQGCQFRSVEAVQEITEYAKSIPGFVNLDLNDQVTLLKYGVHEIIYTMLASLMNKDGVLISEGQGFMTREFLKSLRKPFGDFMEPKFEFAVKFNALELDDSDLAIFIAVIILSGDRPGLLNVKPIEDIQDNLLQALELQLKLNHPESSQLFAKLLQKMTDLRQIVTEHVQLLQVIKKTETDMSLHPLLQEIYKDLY
Test: FABP4 enhancer-luciferase reporter analysis of PPARγ2 transcriptional activity in 293T cells
Type: cell-based
Design: expressed in transfected cells; host or cells: 293T cells
Conditions: sLZIP 0.1 to 0.5 μg, 10 nM RZD
Method: Appropriately transfected cells were washed with cold PBS twice, and a reporter lysis buffer (Promega) was used and lysed in a culture dish. Luciferase analysis was performed using a luciferase analysis system (Promega Corporation, Madison, Wis.). A luciferase activity was recorded in Luminometer 20/20^n (Turner BioSystems, Sunnyvale, Calif.) according to instructions of the manufacturer. The luciferase activity was normalized to a β-galactosidase activity. For β-galactosidase analysis, CMV-β-galactosidase was transfected with luciferase reporter genes. All pieces of data were represented as mean±standard deviation of the results from at least three independent experiments.
A DNA binding ability of sLZIP with various elements in the FABP4 enhancer region was examined. For this purpose, recombinant His-sLZIP fusion proteins (3 μg) were incubated with γ-^32P-labeled oligonucleotide probes containing expected CREB binding elements (FIG. 7B). The γ-^32P-labeled oligonucleotide probes were incubated while an amount of purified His-sLZIPs was increased. […]
Adipocyte differentiation is a well-regulated procedure. […] A promoter activity was measured according to luciferase analysis (FIG. 8B). […] Total RNA was extracted from the cells, and an mRNA expression level of mouse LZIPs was measured using RT-PCR analysis. […]

B1: sLZIP: human small leucine-zipper protein, isoform of LZIP, 354 amino acids, no transmembrane domain; GenBank FJ263669, SEQ ID NO: 1 (protein, listed as Homo sapiens)
chain: MELELDAGDQDLLAFLLEESGDLGTAPDEAVRAPLDWALPLSEVPSDWEVDDLLCSLLSPPASLNILSSSNPCLVHHDHTYSLPRETVSMDLESESCRKEGTQMTPQHMEELAEQEIARLVLTDEEKSLLEKEGLILPETLPLTKTEEQILKRVRRKIRNKRSAQESRRKKKVYVGGLESRVLKYTAQNMELQNKVQLLEEQNLSLLDQLRKLQAMVIEISNKTSSSSMYSSDTRGSLPAEHGVLSRQLRALPSEDPYQLELPALQSEVPKDSTHQWLDGSDCVLQAPGNTSCLLHYMPQAPSAEPPLEWPFPDLFSEPLCRGPILPLQANLTRKGGWLPTGSPSVILQDRYSG
  transcriptional activity of PPARγ2 (FABP4 enhancer-luciferase): decreased the transcriptional activity of PPARγ2 in a concentration-dependent manner

From patent US10058586B2, “Use of human small leucine zipper protein in adipocyte differentiation procedure” (Korea University Research and Business Foundation, priority 2013, dated 2018)
